Columns and labels:
[1] = target: T1, mouse programmed cell death protein 1 Fc fusion protein (mPD-1-Fc), mPD-1 C60S (aa 25-167) (Mus musculus, UniProt Q02242, stabilised); test: SPR; Carterra LSA; Fab from the ammonium sulfate precipitate of the culture supernatant immobilised on a NiHC200M chip; hPD-1 (1-1024 nM) or mPD-1-Fc (4-1024 nM) as analyte, fourfold dilution series, no regeneration; HBS-EP pH 7.4, 25 °C; medians over the spots of a construct, KD = koff/kon; conditions: one partner purified
T1 construct: not cleaved; source: Expi293F, purified (Protein A, SEC; dimeric fraction); not shown: Fc (human), C-terminal, kept
Outline: (§1)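 Fabs, ammonium sulfate-precipitated from Brevibacillus supernatants and redissolved in HBS-EP, were captured in duplicate on a NiHC200M chip on a Carterra LSA at 25 °C. Fourfold series of human PD-1 (1–1024 nM) or mouse PD-1-Fc (4–1024 nM) were run without regeneration, with association for 10 min and dissociation for 5 min. Rates were fitted with the kdka model, choosing the better of slow- or fast-dissociation settings, and unconfirmed binders were given kon 10^3 […] and koff 10^−2 s^−1. The dissociation constant KD is koff/kon based on per-construct medians.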

[2] = target: T2, human programmed cell death protein 1 (hPD-1) C93S (aa 24-167) (Homo sapiens, UniProt Q15116, C93S); test: as above; conditions: one partner purified
T2 construct: made as a fusion with a TEV site and human Fc; the Fc was cut off with TEV protease; source: Expi293F, purified (Protein A, TEV cleavage of Fc, SEC; monomer fractions); not shown: Fc (human), C-terminal, cleaved
T2 sequence (Q15116 24-167 C93S): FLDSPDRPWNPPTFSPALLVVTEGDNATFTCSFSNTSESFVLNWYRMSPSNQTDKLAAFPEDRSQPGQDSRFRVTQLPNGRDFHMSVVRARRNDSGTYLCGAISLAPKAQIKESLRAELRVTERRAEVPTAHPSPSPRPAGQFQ
Outline: as §1

Binder	Kd [1] [nM]	koff [1] [s⁻¹]	kon [1] [M⁻¹ s⁻¹]	Kd [2] [nM]	koff [2] [s⁻¹]	kon [2] [M⁻¹ s⁻¹]
toripalimab Fab L.P100Y (Fab, V domains shown, as the heavy chain of Sm3; light chain of Sm3 with this change; numbers count from the chain's first residue; source: Brevibacillus, culture supernatant (ammonium sulfate precipitate); not shown: 6xHis, C-terminal, kept; 6xHN, C-terminal, kept) VH: QGQLVQSGAEVKKPGASVKVSCKASGYTFTDYEMHWVRQAPIHGLEWIGVIESETGGTAYNQKFKGRVTITADKSTSTAYMELSSLRSEDTAVYYCAREGITTVATTYYWYFDVWGQGTTVTVSS VL: DVVMTQSPLSLPVTLGQPASISCRSSQSIVHSNGNTYLEWYLQKPGQSPQLLIYKVSNRFSGVPDRFSGSGSGTDFTLKISRVEAEDVGVYYCFQGSHVYLTFGQGTKLEIK	1.79	3.62e-05	20200	< 0.355	< 1e-05	28200
toripalimab Fab L.L101M (Fab, V domains shown, as the heavy chain of Sm3; light chain of Sm3 with this change; numbers count from the chain's first residue; source: Brevibacillus, culture supernatant (ammonium sulfate precipitate); not shown: 6xHis, C-terminal, kept; 6xHN, C-terminal, kept) VH: QGQLVQSGAEVKKPGASVKVSCKASGYTFTDYEMHWVRQAPIHGLEWIGVIESETGGTAYNQKFKGRVTITADKSTSTAYMELSSLRSEDTAVYYCAREGITTVATTYYWYFDVWGQGTTVTVSS VL: DVVMTQSPLSLPVTLGQPASISCRSSQSIVHSNGNTYLEWYLQKPGQSPQLLIYKVSNRFSGVPDRFSGSGSGTDFTLKISRVEAEDVGVYYCFQGSHVPMTFGQGTKLEIK	24.5	0.000673	27500	< 1.08	< 1e-05	9290
toripalimab Fab L.L101F (Fab, V domains shown, as the heavy chain of Sm3; light chain of Sm3 with this change; numbers count from the chain's first residue; source: Brevibacillus, culture supernatant (ammonium sulfate precipitate); not shown: 6xHis, C-terminal, kept; 6xHN, C-terminal, kept) VH: QGQLVQSGAEVKKPGASVKVSCKASGYTFTDYEMHWVRQAPIHGLEWIGVIESETGGTAYNQKFKGRVTITADKSTSTAYMELSSLRSEDTAVYYCAREGITTVATTYYWYFDVWGQGTTVTVSS VL: DVVMTQSPLSLPVTLGQPASISCRSSQSIVHSNGNTYLEWYLQKPGQSPQLLIYKVSNRFSGVPDRFSGSGSGTDFTLKISRVEAEDVGVYYCFQGSHVPFTFGQGTKLEIK	1020	0.0615	60300	7.96	0.000141	17700
toripalimab Fab L.L101Q (Fab, V domains shown, as the heavy chain of Sm3; light chain of Sm3 with this change; numbers count from the chain's first residue; source: Brevibacillus, culture supernatant (ammonium sulfate precipitate); not shown: 6xHis, C-terminal, kept; 6xHN, C-terminal, kept) VH: QGQLVQSGAEVKKPGASVKVSCKASGYTFTDYEMHWVRQAPIHGLEWIGVIESETGGTAYNQKFKGRVTITADKSTSTAYMELSSLRSEDTAVYYCAREGITTVATTYYWYFDVWGQGTTVTVSS VL: DVVMTQSPLSLPVTLGQPASISCRSSQSIVHSNGNTYLEWYLQKPGQSPQLLIYKVSNRFSGVPDRFSGSGSGTDFTLKISRVEAEDVGVYYCFQGSHVPQTFGQGTKLEIK	265	0.0143	54000	2.78	2.5e-05	8990
toripalimab Fab L.L101K (Fab, V domains shown, as the heavy chain of Sm3; light chain of Sm3 with this change; numbers count from the chain's first residue; source: Brevibacillus, culture supernatant (ammonium sulfate precipitate); not shown: 6xHis, C-terminal, kept; 6xHN, C-terminal, kept) VH: QGQLVQSGAEVKKPGASVKVSCKASGYTFTDYEMHWVRQAPIHGLEWIGVIESETGGTAYNQKFKGRVTITADKSTSTAYMELSSLRSEDTAVYYCAREGITTVATTYYWYFDVWGQGTTVTVSS VL: DVVMTQSPLSLPVTLGQPASISCRSSQSIVHSNGNTYLEWYLQKPGQSPQLLIYKVSNRFSGVPDRFSGSGSGTDFTLKISRVEAEDVGVYYCFQGSHVPKTFGQGTKLEIK	606	0.0212	35000	492	0.00276	5600
toripalimab Fab L.L101S (Fab, V domains shown, as the heavy chain of Sm3; light chain of Sm3 with this change; numbers count from the chain's first residue; source: Brevibacillus, culture supernatant (ammonium sulfate precipitate); not shown: 6xHis, C-terminal, kept; 6xHN, C-terminal, kept) VH: QGQLVQSGAEVKKPGASVKVSCKASGYTFTDYEMHWVRQAPIHGLEWIGVIESETGGTAYNQKFKGRVTITADKSTSTAYMELSSLRSEDTAVYYCAREGITTVATTYYWYFDVWGQGTTVTVSS VL: DVVMTQSPLSLPVTLGQPASISCRSSQSIVHSNGNTYLEWYLQKPGQSPQLLIYKVSNRFSGVPDRFSGSGSGTDFTLKISRVEAEDVGVYYCFQGSHVPSTFGQGTKLEIK	48.2	0.000659	13700	4.13	2.42e-05	5870
toripalimab Fab L.L101G (Fab, V domains shown, as the heavy chain of Sm3; light chain of Sm3 with this change; numbers count from the chain's first residue; source: Brevibacillus, culture supernatant (ammonium sulfate precipitate); not shown: 6xHis, C-terminal, kept; 6xHN, C-terminal, kept) VH: QGQLVQSGAEVKKPGASVKVSCKASGYTFTDYEMHWVRQAPIHGLEWIGVIESETGGTAYNQKFKGRVTITADKSTSTAYMELSSLRSEDTAVYYCAREGITTVATTYYWYFDVWGQGTTVTVSS VL: DVVMTQSPLSLPVTLGQPASISCRSSQSIVHSNGNTYLEWYLQKPGQSPQLLIYKVSNRFSGVPDRFSGSGSGTDFTLKISRVEAEDVGVYYCFQGSHVPGTFGQGTKLEIK	40.1	0.000405	10100	< 1.95	< 1e-05	5120

— PMC10663500, “High-throughput analysis system of interaction kinetics for data-driven antibody design” (Scientific Reports, 2023)
